Laboratory results reported in patent US8563513 (VAN ANDEL RESEARCH INSTITUTE, dated 2013).
Where no end group is shown, it is not given here.

B1: PTH(1-34)NH2 [K27L/L28I] (peptide)
peptide: SVSEIQLMHNLGKHLNSMERVEWLRKLIQDVHNF-NH2
B2: PTH(15-34)NH2 (peptide)
peptide: LNSMERVEWLRKKLQDVHNF-NH2
notes: also called C-terminally amidated 15-34 fragment of PTH
B3: V31A (peptide)
peptide: LNSMERVEWLRKKLQDAHNF-NH2
notes: also called PTH(15-34)NH2 [V31A]
B4: H32A (peptide)
peptide: LNSMERVEWLRKKLQDVANF-NH2
notes: also called PTH(15-34)NH2 [H32A]
B5: Q29A (peptide)
peptide: LNSMERVEWLRKKLADVHNF-NH2
notes: also called PTH(15-34)NH2 [Q29A]
B6: R20A (peptide)
peptide: LNSMEAVEWLRKKLQDVHNF-NH2
notes: also called PTH(15-34)NH2 [R20A]
B7: K27A (peptide)
peptide: LNSMERVEWLRKALQDVHNF-NH2
notes: also called PTH(15-34)NH2 [K27A]
B8: V21A (peptide)
peptide: LNSMERAEWLRKKLQDVHNF-NH2
notes: also called PTH(15-34)NH2 [V21A]
B9: E19A (peptide)
peptide: LNSMARVEWLRKKLQDVHNF-NH2
notes: also called PTH(15-34)NH2 [E19A]
B10: F34A (peptide)
peptide: LNSMERVEWLRKKLQDVHNA-NH2
notes: also called PTH(15-34)NH2 [F34A]
B11: K26A (peptide)
peptide: LNSMERVEWLRAKLQDVHNF-NH2
notes: also called PTH(15-34)NH2 [K26A]
B12: L28A (peptide)
peptide: LNSMERVEWLRKKAQDVHNF-NH2
notes: also called PTH(15-34)NH2 [L28A]
B13: L24A (peptide)
peptide: LNSMERVEWARKKLQDVHNF-NH2
notes: also called PTH(15-34)NH2 [L24A]
B14: W23A (peptide)
peptide: LNSMERVEALRKKLQDVHNF-NH2
notes: also called PTH(15-34)NH2 [W23A]
B15: F23A (peptide)
peptide: GKSIQDLRRRFALHHLIAEIHTA-NH2
notes: also called PTHrP(12-34)NH2 [F23A]
B16: R21A (peptide)
peptide: GKSIQDLRRAFFLHHLIAEIHTA-NH2
notes: also called PTHrP(12-34)NH2 [R21A]
B17: R19A (peptide)
peptide: GKSIQDLARRFFLHHLIAEIHTA-NH2
notes: also called PTHrP(12-34)NH2 [R19A]
B18: L27A (peptide)
peptide: GKSIQDLRRRFFLHHAIAEIHTA-NH2
notes: also called PTHrP(12-34)NH2 [L27A]
B19: Q16A (peptide)
peptide: GKSIADLRRRFFLHHLIAEIHTA-NH2
notes: also called PTHrP(12-34)NH2 [Q16A]
B20: I28A (peptide)
peptide: GKSIQDLRRRFFLHHLAAEIHTA-NH2
notes: also called PTHrP(12-34)NH2 [I28A]
B21: I31A (peptide)
peptide: GKSIQDLRRRFFLHHLIAEAHTA-NH2
notes: also called PTHrP(12-34)NH2 [I31A]
B22: R20A (peptide)
peptide: GKSIQDLRARFFLHHLIAEIHTA-NH2
notes: also called PTHrP(12-34)NH2 [R20A]
B23: T33A (peptide)
peptide: GKSIQDLRRRFFLHHLIAEIHAA-NH2
notes: also called PTHrP(12-34)NH2 [T33A]
B24: H32A (peptide)
peptide: GKSIQDLRRRFFLHHLIAEIATA-NH2
notes: also called PTHrP(12-34)NH2 [H32A]
B25: L24A (peptide)
peptide: GKSIQDLRRRFFAHHLIAEIHTA-NH2
notes: also called PTHrP(12-34)NH2 [L24A]
B26: W23F/V31I (peptide)
peptide: LNSMERVEFLRKKLQDIHNF-NH2
notes: also called PTH(15-34)NH2 [W23F/V31I]
B27: PTH(15-34)NH2 [K27′L/V31′I] (peptide)
peptide: LNSMERVEWLRKLLQDIHNF-NH2
notes: Hybrid PTH/PTHrP peptide in the PTH(15-34)NH2 scaffold
B28: PTH(15-34)NH2 [W23′F] (peptide)
peptide: LNSMERVEFLRKKLQDVHNF-NH2
notes: as for B27
B29: W23F/L28I (peptide)
peptide: LNSMERVEFLRKKIQDVHNF-NH2
notes: also called PTH(15-34)NH2 [W23F/L28I]
B30: PTH(15-34)NH2 [L28′I] (peptide)
peptide: LNSMERVEWLRKKIQDVHNF-NH2
notes: as for B27
B31: PTH(15-34)NH2 [K27′L/L28′I] (peptide)
peptide: LNSMERVEWLRKLIQDVHNF-NH2
notes: as for B27
B32: PTH(15-34)NH2 [W23′F/K27′L] (peptide)
peptide: LNSMERVEFLRKLLQDVHNF-NH2
notes: as for B27
B33: PTH(15-34)NH2 [W23′F/K27′L/L28′I/V31′I] (peptide)
peptide: LNSMERVEFLRKLIQDIHNF-NH2
notes: Quadruple swap peptide in the PTH(15-34)NH2 scaffold; also called W23′F/K27′L/L28′I/V31′I peptide
B34: L28I/V31I (peptide)
peptide: LNSMERVEWLRKKIQDIHNF-NH2
notes: also called PTH(15-34)NH2 [L28I/V31I]
B35: PTH(15-34)NH2 [V31′I] (peptide)
peptide: LNSMERVEWLRKKLQDIHNF-NH2
notes: as for B27
B36: PTH(15-34)NH2 [K27′L] (peptide)
peptide: LNSMERVEWLRKLLQDVHNF-NH2
notes: as for B27
B37: PTHrP(12-34)NH2 [F23′W] (peptide)
peptide: GKSIQDLRRRFWLHHLIAEIHTA-NH2
notes: Hybrid PTH/PTHrP peptide in the PTHrP(12-34)NH2 scaffold
B38: PTHrP(12-34)NH2 [L27′K/I28′L] (peptide)
peptide: GKSIQDLRRRFFLHHKLAEIHTA-NH2
notes: as for B37
B39: F23W/I31V (peptide)
peptide: GKSIQDLRRRFWLHHLIAEVHTA-NH2
notes: also called PTHrP(12-34)NH2 [F23W/I31V]
B40: PTHrP(12-34)NH2 [I31′V] (peptide)
peptide: GKSIQDLRRRFFLHHLIAEVHTA-NH2
notes: as for B37
B41: PTHrP(12-34)NH2 [I28′L] (peptide)
peptide: GKSIQDLRRRFFLHHLLAEIHTA-NH2
notes: as for B37
B42: PTHrP(12-34)NH2 [L27′K/I31′V] (peptide)
peptide: GKSIQDLRRRFFLHHKIAEVHTA-NH2
notes: as for B37
B43: PTHrP(12-34)NH2 [L27′K] (peptide)
peptide: GKSIQDLRRRFFLHHKIAEIHTA-NH2
notes: as for B37
B44: F23W/I28L (peptide)
peptide: GKSIQDLRRRFWLHHLLAEIHTA-NH2
notes: also called PTHrP(12-34)NH2 [F23W/I28L]
B45: PTHrP(12-34)NH2 [F23′W/L27′K/I28′L/I31′V] (peptide)
peptide: GKSIQDLRRRFWLHHKLAEVHTA-NH2
notes: Quadruple swap peptide in the PTHrP(12-34)NH2 scaffold; also called quadruply mutant PTHrP peptide
B46: PTHrP(12-34)NH2 [F23′W/L27′K] (peptide)
peptide: GKSIQDLRRRFWLHHKIAEIHTA-NH2
notes: as for B37
B47: I28L/I31V (peptide)
peptide: GKSIQDLRRRFFLHHLLAEVHTA-NH2
notes: also called PTHrP(12-34)NH2 [I28L/I31V]

target: T1, PTH1R in cell membranes, G protein-coupled conformation (RG) (UniProt Q03431 27-593); test: competition binding, PTH1R in cell membranes, RG state (dominant negative Gαs), n = 3
T1 construct: whole, on cells; Cell membranes, not intact cells; RG state studied by co-expressing the receptor with dominant negative Gαs; also called G protein-coupled receptor
T1 sequence (Q03431 27-593): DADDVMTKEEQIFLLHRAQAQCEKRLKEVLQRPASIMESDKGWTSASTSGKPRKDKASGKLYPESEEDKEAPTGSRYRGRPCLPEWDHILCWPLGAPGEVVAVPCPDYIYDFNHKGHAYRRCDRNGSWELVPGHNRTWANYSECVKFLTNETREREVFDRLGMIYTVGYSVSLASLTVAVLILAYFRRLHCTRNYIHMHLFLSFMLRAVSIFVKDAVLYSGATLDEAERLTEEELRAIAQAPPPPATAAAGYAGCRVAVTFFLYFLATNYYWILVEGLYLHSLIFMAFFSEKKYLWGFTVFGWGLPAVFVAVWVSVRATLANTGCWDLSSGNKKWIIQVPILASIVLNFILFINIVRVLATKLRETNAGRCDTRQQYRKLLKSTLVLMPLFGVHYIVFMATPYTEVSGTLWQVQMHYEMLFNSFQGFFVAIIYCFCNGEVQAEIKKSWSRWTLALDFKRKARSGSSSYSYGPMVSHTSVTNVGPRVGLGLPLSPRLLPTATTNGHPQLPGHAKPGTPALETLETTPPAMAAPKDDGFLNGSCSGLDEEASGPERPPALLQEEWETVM

How did the IC50 turn out when B1 was run?
Its IC50 is 380 pM.

And the “IC50 Log M” value?
The value was -9.5 Log M.

target: T2, MBP-PTH1R ECD-(His)6 fusion protein (UniProt Q03431 29-187); test: AlphaScreen single point competition; peptide 20 µM against biotin-PTH(7-34)NH2 (23 nM) on MBP-PTH1R-ECD (23 nM) [panel H]
T2 construct: range 29-187; Expressed in E. coli, disulfide shuffled in vitro; also called MBP-PTH1R ECD-H6; MBP-PTH1R ECD fusion protein
T2 sequence: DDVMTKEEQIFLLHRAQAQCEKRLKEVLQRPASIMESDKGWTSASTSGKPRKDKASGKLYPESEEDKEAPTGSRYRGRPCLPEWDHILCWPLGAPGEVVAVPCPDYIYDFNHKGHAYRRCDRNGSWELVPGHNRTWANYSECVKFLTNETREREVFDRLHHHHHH
Procedure: (§1) ECD-peptide binding assays. The binding of peptides to the MBP-PTH1R ECD-H6 fusion protein was assessed using an AlphaScreen assay (Perkin-Elmer). […] The pre-coupling reactions were mixed, un-labeled competitor peptides were added as indicated, and the reactions were incubated 4 to 5 hrs to reach equilibrium. Photon counts were recorded in 384-well optiplates using an Envision 2104 plate reader (Perkin-Elmer). Prism 5.0 software (GraphPad Software, San Diego) was used to fit the data to a fixed-slope dose-response inhibition equation for determination of IC50 values. Real-time analysis of the binding of peptides to the isolated PTH1R ECD using the Octet Red system (ForteBio) was performed as described in below.

Does B2 bind?
Result: binds

Does B3 bind?
Result: binds

Does B4 bind?
Result: binds

Does B5 bind?
Result: binds

Does B6 bind?
Result: binds

Does B7 bind?
Result: binds

Does B8 bind?
Result: binds

Does B9 bind?
Result: binds

Does B10 bind?
Result: binds

Does B11 bind?
Result: binds

Does B12 bind?
Result: no binding (tested: 20 µM)

Does B13 bind?
Result: no binding (tested: 20 µM)

Does B14 bind?
Result: no binding (tested: 20 µM)

target: T2, MBP-PTH1R ECD-(His)6 fusion protein; test: AlphaScreen single point competition; peptide 20 µM against biotin-PTH(7-34)NH2 (23 nM) on MBP-PTH1R-ECD (23 nM) [panel I]
Procedure: as §1

Does B15 bind?
Result: binds

Does B16 bind?
Result: binds

Does B17 bind?
Result: binds

Does B18 bind?
Result: binds

Does B19 bind?
Result: binds

Does B20 bind?
Result: binds

Does B21 bind?
Result: binds

Does B22 bind?
Result: no binding (tested: 20 µM)

Does B23 bind?
Result: binds

Does B24 bind?
Result: binds

Does B25 bind?
Result: binds

target: T2, MBP-PTH1R ECD-(His)6 fusion protein; test: AlphaScreen single point competition; peptide 20 µM against biotin-PTH(7-34)NH2 (23 nM) on MBP-PTH1R-ECD (23 nM) [panel A]
Procedure: as §1

Does B26 bind?
Result: binds

Does B27 bind?
Result: binds

Does B28 bind?
Result: binds

Does B29 bind?
Result: binds

Does B30 bind?
Result: binds

Does B31 bind?
Result: binds

Does B32 bind?
Result: binds

Does B33 bind?
Result: binds

Does B34 bind?
Result: binds

Does B35 bind?
Result: binds

Does B36 bind?
Result: binds

target: T2, MBP-PTH1R ECD-(His)6 fusion protein; test: AlphaScreen single point competition; peptide 20 µM against biotin-PTH(7-34)NH2 (23 nM) on MBP-PTH1R-ECD (23 nM) [panel B]
Procedure: as §1

Does B37 bind?
Result: binds

Does B38 bind?
Result: binds

Does B39 bind?
Result: binds

Does B40 bind?
Result: binds

Does B41 bind?
Result: binds

Does B42 bind?
Result: binds

Does B43 bind?
Result: binds

Does B44 bind?
Result: binds

Does B45 bind?
Result: binds

Does B46 bind?
Result: binds

Does B47 bind?
Result: binds
